Where no end group is shown, it is not given here. [ ]: non-standard residue; d: D form. The star is where a group is joined. Myristoyl = CCCCCCCCCCCCCC(=O)*; pS = N[C@@H](COP(=O)(O)O)C(=O)O
Molecular target: wild-type (WT) GSK-3β (human, UniProt P49841 1-420, phosphorylated at Tyr 216 (shown by western blot))
Assay: cell-based or functional assay

Sequence of wild-type (WT) GSK-3β (P49841 other isoform, or with tags, fused parts or gaps limits assumed): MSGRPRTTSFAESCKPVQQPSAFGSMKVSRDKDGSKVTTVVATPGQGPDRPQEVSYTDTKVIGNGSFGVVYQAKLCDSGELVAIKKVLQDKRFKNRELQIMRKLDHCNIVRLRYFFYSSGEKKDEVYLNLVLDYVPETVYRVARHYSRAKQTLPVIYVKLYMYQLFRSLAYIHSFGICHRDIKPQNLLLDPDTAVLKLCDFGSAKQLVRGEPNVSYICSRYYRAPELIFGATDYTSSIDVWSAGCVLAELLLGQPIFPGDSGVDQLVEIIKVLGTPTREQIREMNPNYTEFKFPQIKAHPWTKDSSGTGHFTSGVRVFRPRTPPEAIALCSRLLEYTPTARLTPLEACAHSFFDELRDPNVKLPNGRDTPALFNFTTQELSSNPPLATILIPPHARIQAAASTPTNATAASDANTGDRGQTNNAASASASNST

Row | inhibition of GSK-3β in in vitro kinase assays (substrate phosphorylation, no inhibitor = 100%) | IC50, in vitro kinase assays with GSK-3β at increasing inhibitor concentrations [nM] | Binder
1 | ~2 fold relative to L803 | – | KEAPPAPPA[pS]P [PQ9A (L803 variant where Gln9 was replaced by alanine)]
2 | – | ~1000 | Myristoyl-GKEAPPAPPP[pS]P [L806-mts, Myr-GKEAPPAPPPS(p)P]

— patent publication US20160130303A1 (RAMOT AT TEL AVIV UNIVERSITY, published 2016)
